The values that follow come from patent publication US20240084041A1 (Regeneron, published 2024).

Test in all cases: cell-based or functional assay
The target of experiment [1] is T1, MET on NCI-H596 cells (MET exon14 skip mutation) (human, UniProt P08581 25-1390).
Experiment [2] deals with T1, MET on NCI-H596 cells (MET exon14 skip …). This is another data set of the same source.
Another experiment deals with T2, MET on EBC-1 cells (human, UniProt P08581 25-1390).
T2 chain: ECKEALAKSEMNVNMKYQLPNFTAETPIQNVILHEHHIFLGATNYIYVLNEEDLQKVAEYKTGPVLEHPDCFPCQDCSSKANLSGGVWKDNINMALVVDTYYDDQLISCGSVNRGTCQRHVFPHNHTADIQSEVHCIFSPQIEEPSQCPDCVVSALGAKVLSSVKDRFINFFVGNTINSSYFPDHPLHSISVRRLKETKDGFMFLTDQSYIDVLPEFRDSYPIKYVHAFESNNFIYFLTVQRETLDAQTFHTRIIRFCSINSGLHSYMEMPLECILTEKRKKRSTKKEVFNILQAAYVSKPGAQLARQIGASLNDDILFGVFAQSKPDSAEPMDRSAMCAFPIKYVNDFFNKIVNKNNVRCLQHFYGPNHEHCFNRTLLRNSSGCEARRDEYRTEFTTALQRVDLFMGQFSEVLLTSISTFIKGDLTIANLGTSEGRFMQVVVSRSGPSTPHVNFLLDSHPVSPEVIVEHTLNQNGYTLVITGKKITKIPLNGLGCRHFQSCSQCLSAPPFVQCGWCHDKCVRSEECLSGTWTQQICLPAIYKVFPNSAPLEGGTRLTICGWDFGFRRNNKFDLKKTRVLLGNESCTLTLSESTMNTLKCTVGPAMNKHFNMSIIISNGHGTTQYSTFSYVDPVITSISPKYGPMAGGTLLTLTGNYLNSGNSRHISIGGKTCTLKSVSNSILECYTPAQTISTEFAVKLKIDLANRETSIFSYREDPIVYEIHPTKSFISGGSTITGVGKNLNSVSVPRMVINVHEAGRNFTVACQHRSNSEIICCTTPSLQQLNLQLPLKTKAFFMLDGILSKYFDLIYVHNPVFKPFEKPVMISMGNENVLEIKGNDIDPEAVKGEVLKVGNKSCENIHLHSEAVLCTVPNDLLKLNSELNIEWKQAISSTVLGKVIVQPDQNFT

B1: H4H13312P2 (antibody, V domains shown)
VH: EVQLVESGGGLVQPGGSLRLSCAASGFIVTTNYMTWLRQAPGKGLEWVSLIYSSGHTYYADSVKGRFTISRHNSKNTLYLQMDSLRAEDTAVYYCASAFAADVFDIWGQGTMVTVSS
VL: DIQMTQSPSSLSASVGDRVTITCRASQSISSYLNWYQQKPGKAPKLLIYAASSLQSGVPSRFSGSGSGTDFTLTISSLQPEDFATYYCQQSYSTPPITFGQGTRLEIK
B1: the “Relative MET Level (immunoblot, 18 hours, 5 µg/ml, NCI-H596)” value (“Relative MET Level” for short) in experiment [1] was 0.35 relative to hFc control. Further, the “Relative Cell Growth (n = 3), NCI-H596 in soft agar, 5 µg/ml, two weeks” value (shortened to “Relative Cell Growth (n = 3), NCI-H596”) in experiment [2] is 1.69 relative to control (no treatment).

B2: H4H13306P2 (antibody, V domains shown)
VH: EVQLVESGGGLVQPGTSLRLSCAASGFTFDDYAMHWVRQAPGKGLEWVSGITWNSYNIDYADSVKGRFTISRDNAKNSLYLQMNSLRAEDTALYYCAKDDDYSNYVYFDYWGQGTLVTVSS
VL: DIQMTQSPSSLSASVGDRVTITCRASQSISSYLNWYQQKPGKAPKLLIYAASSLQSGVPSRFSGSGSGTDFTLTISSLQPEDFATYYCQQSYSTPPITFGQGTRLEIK
Regarding B2, the “Relative MET Level” value in experiment [1] was 0.5 relative to hFc control. For the same molecule, the “Relative Cell Growth (n = 3), NCI-H596” value in experiment [2] was 2.96 relative to control (no treatment).

B3: H4H14639D Bispecific Antibody (bispecific antibody, V domains shown)
VH 1: B2 VH
VH 2: B1 VH
VL: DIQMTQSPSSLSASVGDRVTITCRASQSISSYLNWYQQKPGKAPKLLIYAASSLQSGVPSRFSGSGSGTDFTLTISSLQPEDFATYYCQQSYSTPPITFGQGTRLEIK
As to B3, in the experiment with MET on EBC-1 cells, the “Relative Cell Growth (n = 3), EBC-1, 0.1 µg/mL, 5 days” value was 0.397 relative to control and the “Relative Cell Growth (n = 3), EBC-1, 1 µg/mL, 5 days” value is 0.462 relative to control. Also, the “Relative MET Level” value in experiment [1] is 0.24 relative to hFc control. The “Relative Cell Growth (n = 3), NCI-H596” value in experiment [2] was 1.07 relative to control (no treatment).
